Experimental findings from the DeepSol protein solubility set are described below.

This series is described as follows: soluble on expression in E. coli; label from the status in PepcDB or PDB records.
As for “MGSDKIHHHHHHMHHVKTGALSISRLEYGADVIIEPDHLDNFYLIQIPTQGYAEIEFGSQKFISYSQVASLISPQQSLRMCWHANSPQLILKVSKDDFTYHCRQHIADSENNLLIFDPKLDFSTQGGAYFLQLVRTLMDALACEQHPLHHPLAFKQFESNLFNALIYGQPNNALHKLDHYKEKTVSPYFVKRTEAYIKEHLHEPLNVEILAEHAGVSVRTLFTGFKNYLGTTPMSYLKELRFEQAHLELMHNENLSVTDVAFKWGFTHLGRFSQEYKRRYGELPSSTRRSGQSEGSGLITSIFS”, the “soluble on expression in E. coli” value is given as “not soluble”.

For “MMKDLNLSNSLFKGYNDKHGLMICGYEWGWSKADEAAYVAGEYKLPENKIDHTFANKSLYFGEQAKKWRYDNTIKNWFEMWGHPLDENGLGGAFEKSLVQTNWAATQGNTIDNPDKFTQPEHIDNFLYHIEKLRPKVILFMGSRLADFLNNQNVLPRFEQLVGKQTKPLETVQKEFDGTRFNVKFQSFEDCEVVCFPHPSASRGLSYDYIALFAPEMNRILSDFKTTRGFK”, the “soluble on expression in E. coli” value is listed as “not soluble”.

In the case of “MKITHCKLKKKVQKELLRFFVLEVTARSAADILGIHPNSAVLFYRKIRMVISHYLALAANEVFEGSVELDESYFGGRRKGKRGRGAAGKVVVFGILKRNGRVYTVVVDNAKSDTLMPVIKQKIMPDSIVYTDSLSSYDKLDVSGFIHYRINHSKEFADRQNHINGIENFWNQAKRVLRK”, the “soluble on expression in E. coli” value is “not soluble”.

Turning to “GHMIARGKFRSLTLINWNGFFARTFDFDELVTTLSGGNGAGKSTTMAGFVTALIPDLTLLNFRNTTEAGSTSSSRDKGLYGKLKAGVCYAVLETVNSRAQRIITGVRLQQIAGRDKKVDIRPFSLQNVPMTDSVISLFTEQVANKARVLSLNDLKEKFEETAVTFKPYHSITDYHSFMFDLGILPKRLRSSSDRNKFYKLIEASLYGGISSVITKSLRDYLLPENSGVRQAFQDMEAALRENSGGSGGSISAESVANILRKTIQREQNRILQLNQGLQNIAFGQVKGVRLVVNIRDTHSILLNALSDQHEQHKDLFESQKLSFSEALAMLYKRINPHIELGQRMPQTIGEELLDYRNYLDLEVETLRGAYGWMRAESSALSTGEAIGTGMSILLMVVQSWEEESRRMRAKDILPCRLLFLDQAARLDAMSINTLFELCERLDMQLLIAAPENISPERGTTYKLVRKILANQEYVHVVGLKGFG”, the “soluble on expression in E. coli” value is “soluble”.

For the sequence “METPQDSRQSIQKPPSPAAEEDKEEQPGGNAVVSGAPEERIDKKELVLNWLAQGEFDQGEGAQGEVAGGEQAQEEPAPLSPAQEATGGEEEGENKEGEMEGRHAGDGASSSEDDSILEEGGENIDQQPPQQEAASPDSIRNPHVLNRLAQLRYRRTRFTHFQLHDLERLFQETRYPSLRARRDLARWMGVDECDVQNWFRMRRALFQRNRRVLMFCELPPLPQSDSP”, the “soluble on expression in E. coli” value is listed as “soluble”.

“MSLLIDKFGRPVTNLRISLTKECNLNCFYCHREGQQDGERTMTPEEIERIVRIASRLGIRNVKLTGGEPTVRPDIYEIIQRIRPYVVDLSMTTNGTTLYASAEKLKEAGLDRVNISLDTLDRKKYKMITGYDVLDQVLKGIRRATNLFYPVKLNMVVMRGINDDEIWDMIRFAGEVNAILQLIEIEVPREMENSQFFKDFFYPLKPLEEKFEKIAVEIRERKMHRRRKYFLPVDGKMVEVEVVRSMHNTTFCMNCTRLRLTADGYLKTCLLRKDDLIDILGPIRRGATDDELVKIFKRAVQLRKPYWINEGHHHHHH”: the “soluble on expression in E. coli” value is listed as “soluble”.

“MGHHHHHHSHMSFSKESSRLFGFVAGIKFPKMIQKVINENYVKYFNINMSEFKAPCEYESLNALFTRTLQIPRKFEEGFISPSDGKILECGSTFLANEEHFAFSIKGHAYSVEELLKDSFEKDELKNGLDYVNIYLSPKDYHRYHSPCDMQILSATYTSGVLYSVNEKHLERISNLYVKNERVSLKCQNEKGIFWLVFVGAQNVGKMRFNFDASIQTNAKISHNFTRKYENLNFKKGEELGNFELGSTIVLISQKGLLTFNLKVGQGIKFGEKIAD”: the “soluble on expression in E. coli” value is on record as “soluble”.

For the sequence “MNFTDTHCHLADPALRENLPHILTAARKVGVKRFIVPATRPQDWQDVADLAEMPSEHGQIRIALGIHPWFSDGIAERDFVRLETMLAHYPQAWVGEIGLDFYDKTQTSQQRERQIQVFVRQLEIAQTLRRRVIIHNLKATADIAAAVKQTGFAQGGIVHAFSGSAEEARVLTKLGFKIGIGSLLLNPNARKVRDTLKALNDGDFVLETDSPFMLKKEINTPANIPGIAKIAAEIRGTCVEEIAKVTERNADALLGR”, the “soluble on expression in E. coli” value was “not soluble”.

Regarding “MGSDKIHHHHHHAQPTDPSTTDSELTMLVGTYTSGNSKGIYTFRFNEETGESLPLSDAEVANPSYLIPSADGKFVYSVNEFSKDQAAVSAFAFDKEKGTLHLLNTQKTMGADPCYLTTNGKNIVTANYSGGSITVFPIGQDGALLPASDVIEFKGSGPDKERQTMPHLHCVRITPDGKYLLADDLGTDQIHKFNINPNANADNKEKFLTKGTPEAFKVAPGSGPRHLIFNSDGKFAYLINEIGGTVIAFRYADGMLDEIQTVAADTVNAQGSGDIHLSPDGKYLYASNRLKADGVAIFKVDETNGTLTKVGYQLTGIHPRNFIITPNGKYLLVACRDTNVIQIFERDQATGLLTDIKKDIKVDKPVCLKFVD”, the “soluble on expression in E. coli” value is reported as “not soluble”.

On to “MGSDKIHHHHHHMRLKVSFQAMESTVPLNYNYFLSSFIYKRLASQNENFARFLHEKGYGKRFKFFTFSQLFFENSRVSGERIFIFPGKGWWYISSPVVEFVRYMFSSLSEDPVIRVGKTEFIVKSIDIENSLPDQSEYHFVMLSPLVVSVPEENNGKLYHRYLHPGEEEFYEVFRKNLMKKYRAFYGKDPEGTVEVIPDWDYIKSRHRITKRIKLKNAFVRAVVFPFKIRGEKKLVEIGYEAGFGEKNSMGFGMVALKKYER”, for which the “soluble on expression in E. coli” value is given as “not soluble”.

Turning to “MNQWDQFLTPYKQAVDELKVKLKGMRKQYEVGEQASPIEFVTGRVKPIASIIDKANKRQIPFDRLREEMYDIAGLRMMCQFVEDIDVVVNILRQRKDFKVIEERDYIRNTKESGYRSYHVIIEYPIETLQGQKFILAEIQIRTLAMNFWATIEHTLRYKYDGAYPDEIQHRLERAAEAAYLLDEEMSEIKDEIQEAQKYYTQKRSKKHEND”, the “soluble on expression in E. coli” value is recorded as “not soluble”.

For “MSEQPASLDPVSKQIIEQLQEDGRRSYSAIGKVVGLSEAAVRQRVQKLIDTGVTQIVAVTDPVQVGFSRQAMVGIRCSGDVTEIAARLADVDAIDYVVLTAGAYDILAEIVCENDDHLLAVLNKEIRTIPGVLGTETMVYLKLVKQQYDWGTR”, the “soluble on expression in E. coli” value is reported as “not soluble”.

Consider “MGSDKIHHHHHHMIYIGLPQWSHPKWVRLGITSLEEYARHFNCVEGNTTLYALPKPEVVLRWREQTTDDFRFCFKFPATISHQAALRHCDDLVTEFLTRMSPLAPRIGQYWLQLPATFGPRELPALWHFLDSLPGEFNYGVEVRHPQFFAKGEEEQTLNRGLHQRGVNRVILDSRPVHAARPHSEAIRDAQRKKPKVPVHAVLTATNPLIRFIGSDDMTQNRELFQVWLQKLAQWHQTTTPYLFLHTPDIAQAPELVHTLWEDLRKTLPEIGAVPAIPQQSSLF”, for which the “soluble on expression in E. coli” value is reported as “not soluble”.

Regarding “MGSDKIHHHHHHMKDNPISPTIPLDQDGVHHGFLKLPYSRDDSAWGSVMIPITVIQNGAGKTALLTGANHGDEYEGPVALQELAATTRAEDVTGRLIIVPYFNYPAFRASARTSPIDRGNLNRAFPGRPDGTVTQKIADYFQRTLLPMADVAVDFHSGGKTLDFVPFAAAHILEDKVLQDACFAAMQAFNAPYSVQLLEIDSEGMYDTAVEEMGKVLVTTELGGGGMSTARSNAIAKKGLRNVLIHFGILQGEMQIDPSVTLDMPDGDCYLFSEHDGLFEIMIDLGEPVQEGDLVARVWSPDRTGEAPVEYRARRSGVLISRHFPGMIKSGDCAAVIGVVEG”, the “soluble on expression in E. coli” value was “not soluble”.

With “LEQARTMSVDEMAANPEINRLMMARIEAAQDSLAAYEKVKYITLLAEPFTLEKGELTETMKLKRRVINEHYAEAIEKMYL”, the “soluble on expression in E. coli” value is listed as “not soluble”.

For the sequence “MGWCITVVHNTKWKAPPDTHIKCNYDAGFNVQNLDSTARWIIRNHDGIAQHWGSLQLDNTSTPLEAETKALLAALQQTWIRGYLRVIMEGDCETLTNLVSGSSSHNHLANLLDDIRIWAKKFSNVQFSFVRRGGNKVAHELAKLGCNSTCFYSDSCTLPIWLHQHYCNDFG”, the “soluble on expression in E. coli” value was “soluble”.

As for “SEQTEVMKPETLEDLIKTLHQIFQSDSINVEEVQNLMESYQSNPQDWMKFAKFDQYRYTRNLVDEGNGKFNLMILCWGEGHGSSIHDHTDSHCFLKLLQGQLKETLFDWPDRKLQSGMKPRGQSVLQENQCAYINDSLGLHRVENVSHTEPAVSLHLYSPPFQSCRTFDQRTGHHNTVKMTFWSKYGERTPYELSVSQENN”, the “soluble on expression in E. coli” value is given as “soluble”.

Regarding “MISLTQQVSAVRLDTHKSDTFEQNDLVLDNTGAVLSGSRDALIRRLVPTRDFCPDESYIFSLLVNIRTFISPHELMQKIVQYCMFAQNADSHNFAKEGRGRMFAHILRLCSEWATNIPYDFKTEYMRTRLNELLRLCAVDKTYQQKTTELQSTLRSSLNKLDRYEKAVANLQKALSENTNLPEQSDSMTGLFVLCNDAKTVAQQLTHIEMERFSMVGVDEIVQSLASDPLSEIGRHSKNKEGTISSISFYIEWFNRLSAFAAIEVLKQTKKRNRVAVFEFMIDIAKECCEIGNFNSMMAIVAGLSLPAVSRLKKTWCRVEKAKLEILQHQLDPSGNFLSYRATIKAAQWRADSARGNQQKIVIPFFVLLLKDLFLIYHGHPRILPNAHLNFMAFNQLAEQLRDVIQWKSTVCTFEKNPQVLQYLLITSVSGEKDSMLMSFECEPPESSSERDQHKKLKGGK”, the “soluble on expression in E. coli” value is on record as “not soluble”.

For the sequence “DPEDPAEDIIQTAGTIAHRGADRQDGGWGSGGPKFPQNGRLHALLRAYADGGQEDYLNVVEETLDVMADRGLYDHVGGGFHRYATDQQWAVPHFEKMLYDNAEIPRAFLAGYQAIGSERYASVVRETFEFVQRELQHPDGGFFSTLDAESAPHSESRSDSEQSSGESPRDDPDGETEEGLFYVWTPEQVHDAVDDETDADIFCDYYGVTEQGNFEGATVLAVRKPVPVLAEEYERSEDEITASLQRALNETFEARKDRPRPARDEKVLAGWNGLMIRALAEGAIVLDDQYADVAADALSFVREHLWDADAGRLNRRYKDDDVAIDGYLEDYAFLGRGALTLFEATGDVEHLAFAMDLGQAITEAFWDDEQGTLFFTPTGGESLVARPQELTD”, the “soluble on expression in E. coli” value is recorded as “not soluble”.

On to “MRNTKIRAVQYGCGKMSKVILNYLVDHGVEIVGAIDKNPAVVGQDIGDFAGFGHKTGIIISDKADQVFDNCDADIAIVTIFSYMPEMYEFYEMAIKHGVNVISTCEEAIYPWTTSPSETNRLDKLAKENHVTIMGSGMQDIYWINMPCLAMAGMNKIKKVRGVVSYNVEDYGLALAEAHGAGYDLERFERDIASAESLPSYMWNAAEAICSKMNWTIQSINQKSVPYILDEDVYSETLGRTIPAGQVTGMSAVTKVQTHQGIDLEVECIGKVYRQDDGDMCDWEITGEPDLIFSVNKPDTVALTCGTIVNRIPTVLDAPAGYITSEKARLITYPSYPLHTYVEK”, for which the “soluble on expression in E. coli” value is “not soluble”.

With “GPLGSSAVTITLKTLQQQTFKIRMEPDETVKVLKEKIEAEKGRDAFPVAGQKLIYAGKILSDDVPIRDYRIDEKNFVVVMVTKTKAGQGTSAPPEASPTAAPESSTSFPPAPTSGMSHPPPAAREDKSPSEESAPTTSPESVSGSVPSSGSSGREEDAASTLVTGSEYETMLTEIMSMGYERERVVAALRASYNNPHRAVEYLLTGIPGSPEPEHGSVQESQVSEQPATEAAGENPLEFLRDQPQFQNMRQVIQQNPALLPALLQQLGQENPQLLQQISRHQEQFIQMLNEPPGELADISDVEGEVGAIGEEAPQMNYIQVTPQEKEAIERLKALGFPESLVIQAYFACEKNENLAANFLLSQNFDDE”, the “soluble on expression in E. coli” value is “soluble”.
